Results as given in US9732101B2, “Bioreversible boronates for delivery of molecules into cells” (WISCONSIN ALUMNI RESEARCH FOUNDATION, priority 2012, dated 2017).
Substitutions are numbered along the chain they refer to. Names may count otherwise.

Columns and labels:
HeLa cells = experiment: Cellular internalization by flow cytometry; type: cell-based; details: for increase in cellular uptake into HeLa cells: 5 μM, 4 h, relative to unmodified lysozyme; for effect of fructose on enhancement of cellular uptake into HeLa cells: fructose 250 mM
Description: Cell lines were obtained from American Type Culture Collection (Manassas, Va.) and were maintained according to the recommended guidelines. Cells were grown in a cell culture incubator at 37° C. and 5% CO2 in flat-bottomed culture flasks. Cell media was supplemented with 10% (v/v) GIBCO fetal bovine serum (FBS), 100 units/mL penicillin, and 100 μg/mL streptomycin in the appropriate cellular media for HeLa cells: DMEM, high glucose (Invitrogen, Carlsbad, Calif.). Cells were counted by hemocytometry for dispensing into 12-well plates (Corning Costar, Lowell, Mass.).
BODIPY-FL was excited with a 488 nm solid-state laser and the emission was collected with a 530/30 bandpass filter. At least 10,000 cellular events were acquired for each sample. Data were analyzed using FlowJo 8.1.3 (Treestar, Ashland, Oreg.).
The day prior to the experiment, 1×10^5HeLa cells/well were plated in 12 well plates. The day of the experiment, the appropriate amount of fructose was dissolved into the cellular medium to obtain a final 250 mM fructose concentration, then it was sterile filtered with a 0.45 μm Whatman (Piscataway, N.J.) syringe filter. Non-fructose containing medium was likewise sterile filtered to maintain consistency between the experimental groups. Stock solutions of fluorescently labeled proteins were diluted into the cell culture to a final concentration of 5 μM. proteins were incubated with cells for four hours, then the cells were rinsed twice with PBS, removed from the cell culture plate with trypsin, placed in flow cytometry tubes containing 80 μL of FBS (to ensure cell viability), and incubated on ice until analyzed by flow cytometry. Final fluorescence values were divided by the percent fluorophore labeling of the protein to determine the corrected value of fluorescence. Experiments were run in triplicate (except for PBA-boronated lysozyme, which was in duplicate) and the data is reported as the mean±standard deviation normalized to the wild type protein uptake.
Flow cytometry experiments were conducted as described in Example 11 with Fluorescein-conjugated NeutrAvidin and Boronated Fluorescein-conjugated NeutrAvidin (boronated by complexation to the PBA-boronated Biotin-peptide conjugate) in HeLa cells.

Lec-2 cells = experiment: Cellular internalization by flow cytometry; type: cell-based, Chinese hamster
Description: (§1) Cell lines were obtained from American Type Culture Collection (Manassas, Va.) and were maintained according to the recommended procedures. Cells were grown in a cell culture incubator at 37° C. under CO2 (5% v/v) in flat-bottomed culture flasks. Cell medium was supplemented with GIBCO fetal bovine serum (FBS) (10% v/v), penicillin (100 units/mL), and streptomycin (100 μg/mL) in the appropriate cellular medium as follows: Pro-5, MEM α+ribonucleosides+deoxyribonucleosides; Lec-2, MEM α-ribonucleosides-deoxyribonucleosides; and K562, RPMI 1640. Cells were counted by hemocytometry for dispensing into 12-well plates (Corning Costar, Lowell, Mass.) or 8-well chambered coverglass slides (Nuc Lab-Tek II, Thermo Scientific).
(§2) BODIPY-FL was excited with a 488 nm solid-state laser and the emission was collected with a 530/30 bandpass filter. To collect the most reproducible data, for every flow cytometry experiment, the sensitivity (voltage) of the photomultiplier tube was set for all data collections using mid-range Rainbow beads from Spherotech (Lake Forest, Ill.) to a predetermined fluorescence target value. At least 10,000 cellular events were acquired for each sample. Data were analyzed using FlowJo 8.1.3 (Treestar, Ashland, Oreg.).
(§3) The day prior to an experiment, Pro-5 and Lec-2 cells were plated in 12-well plates at 1×10^5 cells/well. The day of the experiment, the appropriate amount of fructose was dissolved into the cellular medium to obtain a final fructose concentration of 250 mM, and the medium was passed through a 0.45-μm syringe filter from Whatman (Piscataway, N.J.). Non-fructose-containing medium was filtered likewise. Stock solutions of fluorescently labeled ribonucleases were diluted into the cell culture to a final concentration of 5 μM. Ribonucleases were incubated with cells for 4 h. Cells were then rinsed with PBS (2×400 μL), removed from the cell culture plate with trypsin (400 μL, 0.05% (1×) with EDTA; Invitrogen, Carlsbad, Calif.), placed in flow cytometry tubes containing 80 μL of FBS, and incubated on ice until analyzed by flow cytometry. Final fluorescence values were divided by the percent fluorophore labeling of the ribonuclease to determine the corrected value of fluorescence. Experiments were run twice in triplicate unless otherwise indicated. Data is illustrated in FIG. 4A and FIG. 4C.

Pro-5 cells = experiment: Cellular internalization by flow cytometry; type: cell-based, Chinese hamster
Description: as §1, §2, §3

[1] = Hydrolysis of labeled protein by cell lysate; type: in vitro ADME, human; details: K-562 cell lysate, ambient temperature, 12 h, MALDI-TOF
Description: K-562 cells were grown to confluence in a T75 flask before their collection and lysis with M-PER from Thermo Fisher Scientific. The presence of esterase activity in the lysate was verified by a colorimetric assay using p-nitrophenyl acetate (data not shown). A solution of esterified FLAG-RNase A (10 μg) was added to 200 μL of K-562 cell lysate, and the reaction mixture was nutated at ambient temperature for 12 h. FLAG-RNase A was purified with anti-FLAG® M2 Magnetic Beads from Sigma-Aldrich.

K-562 cells = experiment: Cell-proliferation assay, CyQUANT NF; type: cell-based, human; details: 48 h, serum-free RPMI 1640, read-out: IC50, inhibition of K-562 cell proliferation
Description: The effect of unmodified G88R RNase A and TMLB-G88R RNase A on the proliferation of K-562 cells was assayed using a CyQUANT® NF Cell Proliferation Assay Kit (Invitrogen). Briefly, 5×10^4 cells/mL were added to each well of a 96-well plate in 100 μL of serum-free RPMI 1640 medium. Cells were incubated with G88R RNase A or TMLB-G88R RNase A for 48 h, with PBS and H2O2 serving as negative and positive controls, respectively. Cells were then washed and incubated in CyQUANT® reagent for 30 min and fluorescence intensity was measured with excitation at ˜485 nm and emission detection at ˜530 nm. Data are the average of two measurements for each concentration, and the entire experiment was repeated in triplicate. The results are shown as the percentage of dye incorporated relative to control cells treated with PBS. Values for IC50 were calculated by fitting the curves by nonlinear regression to the equation: y=100%/(1+10^(log(IC50)-log [ribonuclease])h), where y is the total DNA synthesis following the CyQUANT dye pulse and h is the slope of the curve (FIG. 28).

[2] = Hydrolysis of labeled protein by cell lysate; type: in vitro ADME, Chinese hamster; details: CHO K1 cell lysate, ambient temperature, 12 h, MALDI-TOF
Description: CHO K1 cells were grown to confluence in a 10-cm^2 dish before their collection and lysis with M-PER (Thermo Fisher Scientific). The presence of esterase activity in the lysate was verified by a colorimetric assay using p-nitrophenyl acetate (data not shown). A solution of TMLB-GFP (10 μg) was added to 200 μL of CHO K1 cell lysate, and the reaction mixture was nutated at ambient temperature for 12 h. The GFP was subsequently purified with HisPur™ Ni-NTA Magnetic Beads (Thermo Fisher Scientific).

[3] = 5 μM, 4 h, relative to unmodified RNase A

PBA-boronated lysozyme: chicken egg white lysozyme conjugated with 3-aminophenyboronic acid, on average 2.6±1.7 PBA
increase in cellular uptake into HeLa cells (HeLa cells): about 20 fold | effect of fructose on enhancement of cellular uptake into HeLa cells (HeLa cells): decreased

Boronated Fluorescein-conjugated NeutrAvidin: Fluorescein-conjugated NeutrAvidin boronated by complexation to the PBA-boronated Biotin-peptide conjugate
increase in internalization in HeLa cells (HeLa cells; relative to unmodified Fluorescein-conjugated NeutrAvidin): about 2 fold

benzoboroxole-boronated lysozyme: chicken egg white lysozyme conjugated with 5-amino-2-hydroxymethylphenylboronic acid, on average 2.3±1.1 per lysozyme
increase in cellular uptake into HeLa cells (HeLa cells): about 4 fold | effect of fructose on enhancement of cellular uptake into HeLa cells (HeLa cells): decreased

B1: PBA-boronated RNase A: RNase A conjugated with 3-aminophenylboronic acid, on average 5.3±2.3 PBA per protein (conjugate, UniProt P61823 27-150, looked up)
Ribonuclease pancreatic: KETAAAKFERQHMDSSTSAASSSNYCNQMMKSRNLTKDRCKPVNTFVHESLADVQAVCSQKNVACKNGQTNCYQSYSTMSITDCRETGSSKYPNCAYKTTQANKHIIVACEGNPYVPVHFDASV
modifications: 3-aminophenylboronic acid conjugates
notes: RNase A conjugated with 3-aminophenylboronic acid, on average 5.3±2.3 PBA per protein
increase in cellular uptake (Lec-2 cells; [3]): 2.5-3 fold | effect of fructose on enhancement of cellular uptake (Lec-2 cells; fructose 0.25 M): eliminated | increase in cellular uptake (Pro-5 cells; [3]): 2.5-3 fold | effect of fructose on enhancement of cellular uptake (Pro-5 cells; fructose 0.25 M): eliminated

B2: esterified FLAG-RNase A: FLAG-RNase A labeled with TMLB-NHS ester, 1.6±0.7 labels per protein (conjugate, UniProt P61823 27-150, looked up)
Ribonuclease pancreatic: B1 Ribonuclease pancreatic
modifications: FLAG tag; TMLB ester labels
notes: FLAG-RNase A labeled with TMLB-NHS ester, 1.6±0.7 labels per protein
reversibility of labeling: removal of labels by cell lysate [1]: regeneration of unlabeled FLAG-RNase A was confirmed

B3: G88R RNase A: cytotoxic G88R variant of ribonuclease A (protein, UniProt P61823 27-150, looked up, variant G88R)
Ribonuclease pancreatic: B1 Ribonuclease pancreatic with G88R
IC50 (K-562 cells): 6.4 ± 0.1 µM

B4: TMLB-labeled G88R RNase A: G88R RNase A labeled with TMLB-NHS ester, 2±1 labels per protein (conjugate, UniProt P61823 27-150, looked up, variant G88R)
Ribonuclease pancreatic: B1 Ribonuclease pancreatic with G88R
modifications: TMLB ester labels
notes: G88R RNase A labeled with TMLB-NHS ester, 2±1 labels per protein
reversibility of labeling: removal of labels by cell lysate [2]: removed all of the labels | IC50 (K-562 cells): 3.5 ± 0.8 µM
